Test results published in paper PMC4303003.

B1: wild type AcrB (Escherichia coli multidrug transporter AcrB) [E. coli] / itself (parent)
chain: MPNFFIDRPIFAWVIAIIIMLAGGLAILKLPVAQYPTIAPPAVTISASYPGADAKTVQDTVTQVIEQNMNGIDNLMYMSSNSDSTGTVQITLTFESGTDADIAQVQVQNKLQLAMPLLPQEVQQQGVSVEKSSSSFLMVVGVINTDGTMTQEDISDYVAANMKDAISRTSGVGDVQLFGSQYAMRIWMNPNELNKFQLTPVDVITAIKAQNAQVAAGQLGGTPPVKGQQLNASIIAQTRLTSTEEFGKILLKVNQDGSRVLLRDVAKIELGGENYDIIAEFNGQPASGLGIKLATGANALDTAAAIRAELAKMEPFFPSGLKIVYPYDTTPFVKISIHEVVKTLVEAIILVFLVMYLFLQNFRATLIPTIAVPVVLLGTFAVLAAFGFSINTLTMFGMVLAIGLLVDDAIVVVENVERVMAEEGLPPKEATRKSMGQIQGALVGIAMVLSAVFVPMAFFGGSTGAIYRQFSITIVSAMALSVLVALILTPALCATMLKPIAKGDHGEGKKGFFGWFNRMFEKSTHHYTDSVGGILRSTGRYLVLYLIIVVGMAYLFVRLPSSFLPDEDQGVFMTMVQLPAGATQERTQKVLNEVTHYYLTKEKNNVESVFAVNGFGFAGRGQNTGIAFVSLKDWADRPGEENKVEAITMRATRAFSQIKDAMVFAFNLPAIVELGTATGFDFELIDQAGLGHEKLTQARNQLLAEAAKHPDMLTSVRPNGLEDTPQFKIDIDQEKAQALGVSINDINTTLGAAWGGSYVNDFIDRGRVKKVYVMSEAKYRMLPDDIGDWYVRAADGQMVPFSAFSSSRWEYGSPRLERYNGLPSMEILGQAAPGKSTGEAMELMEQLASKLPTGVGYDWTGMSYQERLSGNQAPSLYAISLIVVFLCLAALYESWSIPFSVMLVVPLGVIGALLAATFRGLTNDVYFQVGLLTTIGLSAKNAILIVEFAKDLMDKEGKGLIEATLDAVRMRLRPILMTSLAFILGVMPLVISTGAGSGAQNAVGTGVMGGMVTATVLAIFFVPVFFVVVRRRFSRKNEDIEHSHTVDHH

Variants of: B1
Test: BN-PAGE
Conditions: with itself; read off a plot
chain 1 E810K P223G gave a screen value of 0.11.
chain 1 P800S P223G was tested, and the screen value was 0.11.
chain 1 A209V P223G was tested, and the screen value was 0.4.
chain 1 M662I P223G was tested, and the screen value was 0.19.
In the case of chain 1 D788K P223G, the screen value is reported as 0.15.
chain 1 P223G showed a screen value of 0.26.
chain 1 D256N P223G showed a screen value of 0.41.
chain 1 G257V P223G was tested, and the screen value was 0.15.
chain 1 Q737L P223G was tested, and the screen value was 0.075.
chain 1 T199M P223G showed a screen value of 0.7.
